{
  "source": "patent US20130122566A1",
  "about": "“NOVEL ENZYME PROTEIN, PROCESS FOR PRODUCTION OF THE ENZYME PROTEIN THE SAME, AND GENE ENCODING THE ENZYME PROTEIN THE SAME” (JAPAN TOBACCO INC., priority 2010, published 2013)",
  "molecules": {"B1": {"name": "Photobacterium phosphoreum strain JT-ISH-467 β-galactoside-α2,3-sialyltransferase N2C0 (ISH467-N2C0), wild type, SEQ ID NO: 2, not containing His×6-Tag … (protein)", "chain": "MDSKHNNSDGNITKNKTIEVYVDRATLPTIQQMTQIINENSNNKKLISWSRYPINDETLLESINGSFFKNRPELIKSLDSMILTNEIKKVIINGNTLWAVDVVNIIKSIEALGKKTEIELNFYDDGSAEYVRLYDFSRLPESEQEYKISLSKDNIQSSINGTQPFDNSIENIYGFSQLYPTTYHMLRADIFETNLPLTSLKRVISNNIKQMKWDYFTTFNSQQKNKFYNFTGFNPEKIKEQYKASPHENFIFIGTNSGTATAEQQIDILTEAKKPDSPIITNSIQGLDLFFKGHPSATYNQQIIDAHNMIEIYNKIPFEALIMTDALPDAVGGMGSSVFFSLPNTVENKFIFYKSDTDIENNALIQVMIELNIVNRNDVKLISDLQ"}, "B2": {"name": "Photobacterium phosphoreum strain JT-ISH-467 β-galactoside-α2,3-sialyltransferase N2C0 variant E319A (ISH467-N2C0-E319A; Glu319 of SEQ ID NO: 2 replaced with … (protein)", "chain": "B1 chain with E319A"}, "B3": {"name": "Photobacterium phosphoreum strain JT-ISH-467 β-galactoside-α2,3-sialyltransferase N2C0 variant F318AE319A (ISH467-N2C0-F318AE319A; Phe318 and Glu319 of SEQ ID … (protein)", "chain": "B1 chain with F318A, E319A"}},
  "key": {"[1]": {"target": "T1, Photobacterium phosphoreum strain JT-ISH-467 β-galactoside-α2,3-sialyltransferase N2C0 (ISH467-N2C0), wild type, SEQ ID NO: 2, not containing His×6-Tag (Photobacterium phosphoreum, UniProt A5LHX0)", "T1 sequence (A5LHX0 with tags, fused parts or gaps)": "B1 chain", "experiment": "Sialyltransferase kinetics for lactose and CMP-sialic acid, wild-type N2C0 enzyme", "assay_type": "biochemical"}, "[2]": {"target": "T2, Photobacterium phosphoreum strain JT-ISH-467 β-galactoside-α2,3-sialyltransferase N2C0 variant F318AE319A (ISH467-N2C0-F318AE319A); Phe318 and Glu319 of SEQ ID N (Photobacterium phosphoreum, UniProt A5LHX0, E342A/F341A)", "T2 sequence (A5LHX0 with tags, fused parts or gaps F341A/E342A)": "B1 chain with F318A, E319A", "experiment": "Sialyltransferase kinetics for lactose and CMP-sialic acid, F318A E319A variant enzyme", "assay_type": "biochemical", "conditions": "not containing His×6-Tag", "protocol": "The β-galactoside-α2,3-sialyltransferase activities of variant-type N2C0 proteins (four variants: F318A, E319A, F318AE319A, and S337A) each containing His×6-Tag purified in Example 1 (2) were measured. The sialyltransferase activity was measured by the method as described in J. Biochem., 120, 104-110, (1996) (hereby incorporated by reference in its entirety). […] The enzyme reaction was performed at 30° C. for 5 minutes. After the completion of the reaction, 1.97 mL of 5 mM phosphate buffer (pH 6.8) was added to the reaction solution, which was then applied to a Dowex 1×8 (PO4^3− form, 0.2×2 cm, manufactured by Bio-Rad Laboratories, Inc.) column. The reaction product contained in the eluate (0 to 2 mL) from this column, i.e., the radioactivity contained in sialyllactose was measured to calculate the enzyme activity. One enzyme unit (1 U) is defined as the amount of the enzyme required to release one micromole of sialic acid per minute."}, "[3]": {"substrate": "CC(=O)N[C@H]1[C@H]([C@H](O)[C@H](O)CO)O[C@](OP(=O)(O)OC[C@H]2O[C@@H](n3ccc(N)nc3=O)[C@H](O)[C@@H]2O)(C(=O)O)C[C@@H]1O", "experiment": "purified protein, by the assay type", "conditions": "not containing His×6-Tag, 30.0 °C"}, "[4]": {"substrate": "OC[C@H]1O[C@@H](O[C@H]2[C@H](O)[C@@H](O)C(O)O[C@@H]2CO)[C@H](O)[C@@H](O)[C@H]1O", "experiment": "purified protein, by the assay type", "conditions": "not containing His×6-Tag, 30.0 °C"}, "[5]": {"substrate": "CC(=O)N[C@H]1[C@H]([C@H](O)[C@H](O)CO)O[C@](OP(=O)(O)OC[C@H]2O[C@@H](n3ccc(N)nc3=O)[C@H](O)[C@@H]2O)(C(=O)O)C[C@@H]1O", "experiment": "purified protein, by the assay type", "assay_type": "biochemical, Photobacterium phosphoreum strain JT-ISH-467", "conditions": "other: E319A variant enzyme, not containing His×6-Tag; 30.0 °C", "description": "(§1) The sialyltransferase activity was measured by the method as described in J. Biochem., 120, 104-110, (1996) (hereby incorporated by reference in its entirety). […] The enzyme reaction was performed at 30° C. for 5 minutes. After the completion of the reaction, 1.97 mL of 5 mM phosphate buffer (pH 6.8) was added to the reaction solution, which was then applied to a Dowex 1×8 (PO4^3− form, 0.2×2 cm, manufactured by Bio-Rad Laboratories, Inc.) column. […] One enzyme unit (1 U) is defined as the amount of the enzyme required to release one micromole of sialic acid per minute."}, "[6]": {"substrate": "OC[C@H]1O[C@@H](O[C@H]2[C@H](O)[C@@H](O)C(O)O[C@@H]2CO)[C@H](O)[C@@H](O)[C@H]1O", "experiment": "purified protein, by the assay type", "assay_type": "biochemical, Photobacterium phosphoreum strain JT-ISH-467", "conditions": "other: E319A variant enzyme, not containing His×6-Tag; 30.0 °C", "description": "as §1"}, "[7]": {"conditions": "other: wild-type N2C0 enzyme, pH 6.8"}, "[8]": {"conditions": "other: F318A E319A variant enzyme"}},
  "note": "Residue numbers refer to the chain shown, from its start. In names and notes the source's numbering stands.",
  "data": [
    {"molecule": "CC(=O)N[C@H]1[C@H]([C@H](O)[C@H](O)CO)O[C@](OP(=O)(O)OC[C@H]2O[C@@H](n3ccc(N)nc3=O)[C@H](O)[C@@H]2O)(C(=O)O)C[C@@H]1O", "note": "[CMP-sialic acid, cytidine monophosphate (CMP)-sialic acid]", "values": [
      {"measurement": "Vmax", "setting": "[1]", "value": 7.3, "unit": "nmol/min"},
      {"measurement": "kcat", "setting": "[1]", "value": 21.0, "unit": "s⁻¹"},
      {"measurement": "Vmax", "setting": "[2]", "value": 8.9, "unit": "nmol/min"},
      {"measurement": "kcat", "setting": "[2]", "value": 13.3, "unit": "s⁻¹"}
    ]},
    {"molecule": "OC[C@H]1O[C@@H](O[C@H]2[C@H](O)[C@@H](O)C(O)O[C@@H]2CO)[C@H](O)[C@@H](O)[C@H]1O", "note": "(stereo partly drawn) [Lactose, lactose]", "values": [
      {"measurement": "Vmax", "setting": "[1]", "value": 3.9, "unit": "nmol/min"},
      {"measurement": "kcat", "setting": "[1]", "value": 11.2, "unit": "s⁻¹"},
      {"measurement": "Vmax", "setting": "[2]", "value": 7.2, "unit": "nmol/min"},
      {"measurement": "kcat", "setting": "[2]", "value": 10.8, "unit": "s⁻¹"}
    ]},
    {"molecule": "B1", "values": [
      {"measurement": "Km", "setting": "[3]; [7]", "value": 0.72, "unit": "mM"},
      {"measurement": "Km", "setting": "[4]; [7]", "value": 8.4, "unit": "mM"}
    ]},
    {"molecule": "B2", "values": [
      {"measurement": "Km", "setting": "[5]", "value": 0.53, "unit": "mM"},
      {"measurement": "Vmax", "setting": "[5]", "value": 3.2, "unit": "nmol/min"},
      {"measurement": "kcat", "setting": "[5]", "value": 106.3, "unit": "s⁻¹"},
      {"measurement": "Km", "setting": "[6]", "value": 22, "unit": "mM"},
      {"measurement": "Vmax", "setting": "[6]", "value": 0.012, "unit": "µmol/min"},
      {"measurement": "kcat", "setting": "[6]", "value": 99.7, "unit": "s⁻¹"}
    ]},
    {"molecule": "B3", "values": [
      {"measurement": "Km", "setting": "[3]; [8]", "value": 1.59, "unit": "mM"},
      {"measurement": "Km", "setting": "[4]; [8]", "value": 85, "unit": "mM"}
    ]}
  ]
}
